Results on 1 protein are retold here after article PMC9653972, “Thermophilic Inorganic Pyrophosphatase Ton1914 from Thermococcus onnurineus NA1 Removes the Inhibitory Effect of Pyrophosphate” (International Journal of Molecular Sciences, 2022).

Substrate in the data set: O=P(O)(O)OP(=O)(O)O
Nature of the data set: purified protein. It counts as biochemical, Thermococcus onnurineus. The following applies: standard assay: 2 mM MgCl2, 50 mM Tris-HCl, 80 °C, optimum pH 9.0 (pH of the kinetic run not stated).

B1: Ton1914 (Thermococcus onnurineus NA1) (protein)
chain: MNPFHELEPGPEVPEVVYALIEIPKGSRNKYELDKKTGLLKLDRVLYSPFFYPVDYGIIPQTWYDDGDPFDIMVIMREPVYPLTIVEARPIGIMKMEDSGDKDWKVLAVPVEDPYFNDWKDIDDVPKAFLDEIAHFFQRYKELQGKVTTVEGWGTAEEAKREILRAIEMYKEKFGKKE
notes: about 120 kDa native-PAGE, homo-hexamer; pET28a Nco I/Xho I, E. coli BL21(DE3), heat-purified 80 °C; EC 3.6.1.1, Family I
Turning to B1, the Km (commonly the concentration of substrate that gives half-maximal velocity) turned out to be 1116 µM; the kcat (in general, the number of substrate molecules converted per active site and unit of time at saturation) is 30000 s⁻¹; the kcat/Km (commonly the turnover number divided by the Michaelis constant) was determined as 2.68e+07 M⁻¹ s⁻¹.
